PMC3197488

Key:
[1] = molecular target: P. aeruginosa single-stranded DNA-binding protein (P. aeruginosa) (UniProt P40947); assay: AUC; sedimentation velocity; χψ titrated to 6 μM SSB in high salt buffer, 50000 rpm, 20°C, 280 nm; free χψ from c(s); model of n independent χψ per SSB tetramer
[2] = molecular target: P. aeruginosa single-stranded DNA-binding protein (P. aeruginosa) (UniProt P40947); assay: AUC; sedimentation velocity; χψ titrated to 0.35 μM cognate SSB saturated with 12.3 μM poly(dT), low salt buffer, 22000 rpm, 20°C, 230 nm; model of n χψ per SSB tetramer
[3] = molecular target: EcoSSB;Eco chi-psi complex (Escherichia coli;Escherichia coli LK111lambda) (UniProt P0AGE0+P28905+P28632); assay: analytical ultracentrifugation (sedimentation velocity); conditions: Low salt: 5 mM NaCl, 5 mM KPi pH 7.4, 0.87 M glycerol, 0.5 mM DTT; high salt: 0.3 M NaCl, 20 mM KPi pH 7.4, 0.5 mM DTT; AUC at 20 C; EMSA incubated 10 min at …
EcoSSB;Eco chi-psi complex (Escherichia coli;Escherichia coli LK111lambda), sequence (P0AGE0 2-178, chain 1 of 3): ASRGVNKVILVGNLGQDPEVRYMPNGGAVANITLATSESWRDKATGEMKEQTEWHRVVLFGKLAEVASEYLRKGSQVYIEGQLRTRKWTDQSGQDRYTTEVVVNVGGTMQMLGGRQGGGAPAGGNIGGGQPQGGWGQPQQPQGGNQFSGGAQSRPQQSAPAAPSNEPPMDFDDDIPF
EcoSSB;Eco chi-psi complex (Escherichia coli;Escherichia coli LK111lambda), sequence (P28905 whole entry, chain 2 of 3): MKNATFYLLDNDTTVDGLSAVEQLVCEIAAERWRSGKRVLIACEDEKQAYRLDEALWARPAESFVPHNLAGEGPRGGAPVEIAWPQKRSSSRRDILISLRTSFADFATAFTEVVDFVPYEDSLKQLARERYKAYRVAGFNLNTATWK
EcoSSB;Eco chi-psi complex (Escherichia coli;Escherichia coli LK111lambda), sequence (P28632 whole entry, chain 3 of 3): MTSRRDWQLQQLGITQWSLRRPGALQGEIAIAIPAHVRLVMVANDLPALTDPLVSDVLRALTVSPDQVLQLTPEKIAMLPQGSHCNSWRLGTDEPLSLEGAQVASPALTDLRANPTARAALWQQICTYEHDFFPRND

[4] = molecular target: PaeSSB;Pae chi-psi complex (DNA polymerase III) (Pseudomonas aeruginosa;Pseudomonas aeruginosa PAO1) (UniProt P40947+O68823); assay: as above; conditions: Low salt: 5 mM NaCl, 5 mM KPi pH 7.4, 0.87 M glycerol, 0.5 mM DTT; high salt: 0.3 M NaCl, 20 mM KPi pH 7.4, 0.5 mM DTT; AUC at 20 C; EMSA incubated 10 min at …
PaeSSB;Pae chi-psi complex (DNA polymerase III) (Pseudomonas aeruginosa;Pseudomonas aeruginosa PAO1), sequence (P40947 2-165, one chain of several): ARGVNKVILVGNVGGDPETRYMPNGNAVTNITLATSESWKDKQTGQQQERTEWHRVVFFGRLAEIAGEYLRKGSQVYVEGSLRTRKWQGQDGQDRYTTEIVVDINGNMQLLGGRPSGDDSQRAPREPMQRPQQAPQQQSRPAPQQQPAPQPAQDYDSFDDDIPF

[5] = molecular target: T1, Pae chi-psi complex (DNA polymerase III) (Pseudomonas aeruginosa PAO1) (UniProt O68823); assay: as above; conditions: Low salt: 5 mM NaCl, 5 mM KPi pH 7.4, 0.87 M glycerol, 0.5 mM DTT; high salt: 0.3 M NaCl, 20 mM KPi pH 7.4, 0.5 mM DTT; AUC at 20 C; EMSA incubated 10 min at …
T1 sequence: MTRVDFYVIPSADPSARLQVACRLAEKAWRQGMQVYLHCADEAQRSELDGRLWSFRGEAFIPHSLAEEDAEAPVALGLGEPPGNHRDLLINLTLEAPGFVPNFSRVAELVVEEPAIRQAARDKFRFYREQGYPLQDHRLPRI

P. aeruginosa single-stranded DNA-binding protein (P. aeruginosa), sequence (P40947 whole entry): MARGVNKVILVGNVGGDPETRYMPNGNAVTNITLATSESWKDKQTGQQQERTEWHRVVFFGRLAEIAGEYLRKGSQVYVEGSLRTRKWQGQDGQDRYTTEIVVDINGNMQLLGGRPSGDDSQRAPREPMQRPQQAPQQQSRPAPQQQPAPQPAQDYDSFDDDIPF

| Substance | Ka [1] [M⁻¹] | stoichiometry N (χψ per SSB tetramer) [1] | Ka [2] [M⁻¹] | stoichiometry N (χψ per SSB tetramer) [2] | Ka [3] [M⁻¹] | Ka [4] [M⁻¹] | Ka [5] [M⁻¹] |
| --- | --- | --- | --- | --- | --- | --- | --- |
| P. aeruginosa χψ complex (from UniProt O68823 1-142) | 130000 | 2.2 | > 5e+07 | 2.2 | – | – | – |
| TTTTTTTTTTTTTTTTTTTTTTTTTTTTTTTTTTTTTTTTTTTTTTTTTTTTTTTTTTTTTTTTTTTTTTTTTTTTTTTTTTTTTTTTTTTTTTTTTTTTTTTTTTTTTTTTTTTTTTTTTTTTTTTTTTTTTTTTTTTTTTTTTTTTTTTTTTTTTTTTTTTTTTTTTTTTTTTTTTTTTTTTTTTTTTTTTTTTTTTTTTTTTTTTTTTTTTTTTTTTTTTTTTTTTTTTTTTTTTTTTTTTTTTTTTTTTTTTTTTTTTTTTTTTTTTTTTTTTTTTTTTTTTTTTTTTTTTTTTTT [poly(dT)] | – | – | – | – | 6e+06 | > 5e+07 | 500000 |
